Experimental data published in patent US20250313612A1 (Adimab, published 2025).

Experiments:
[1] = target: RSV F protein of subtype B (18537) on recombinant mKate-RSV (Respiratory syncytial virus subtype B …, UniProt P13843 26-574); assay: cell-based or functional assay
[2] = target: RSV F protein of subtype A (strain A2) on recombinant mKate-RSV (Respiratory syncytial virus subtype A …, UniProt P03420 26-574); assay: cell-based or functional assay
[3] = target: RSV F protein of recombinant mKate-RSV, subtype A (strain A2) (Respiratory syncytial virus subtype A …, UniProt P03420 26-574); assay: cell-based or functional assay
[4] = target: RSV F protein of recombinant mKate-RSV, subtype B (18537) (Respiratory syncytial virus subtype B …, UniProt P13843 26-574); assay: cell-based or functional assay
[5] = target: T1, RSV F ectodomain stabilized in the postfusion conformation (F ΔFP), subtype B (Respiratory syncytial virus subtype B, UniProt P13843 26-109; P13843 147-524); assay: BLI, IgG on AHQ sensor, 100 nM antigen
T1 construct: extracellular domain; trimer; also called Postfusion subtype B; postF subtype B

[6] = target: T2, RSV F ectodomain stabilized in the postfusion conformation (F ΔFP), subtype A (Respiratory syncytial virus subtype A, UniProt P03420 26-109; P03420 147-524); assay: BLI, IgG on AHQ sensor, 100 nM antigen
T2 construct: extracellular domain; trimer; furin-cleaved; also called Postfusion subtype A

Binder	Neut IC50 (µg/ml) subtype B [1]	Neut IC50 (µg/ml) subtype A [2]	Neut IC50 subtype A [3]	Neut IC50 subtype B [4]	Kd [5]	Kd [6]
ADI-14540 (antibody, V domains shown) VH: QVQLVESGGGVVQPGRSLRLSCAASGFTFTDYAMHWVRQAPGKGLQWVALISYNGRIQYYADSVKGRFTISRDDSKNTLYLQMNSLRAGDTAVYYCARDGDLVAVPAAIGFDSWGQGTLVTVSS VL: DIQVTQSPDSLAVSLGERATINCKSSQSVLYTSNNKNYLAWYQQKSRQPPKLLIYWASTRESGVPERFSGSGSGTDFTLTISSLQAEDVAVYYCQQYSSPPYTFGQGTKVEIK	> 10 µg/mL	> 10 µg/mL				
ADI-14458 (antibody, V domains shown, full-length IgG (yeast-expressed); also called Antibody Number 21; Ab# 21) VH: QVQLVESGGGLVKPGGSLRLSCAASGFIFSNAWMSWVRQSPGKGLEWVGRIKTKTEGATTDHAAPLKGRFTISRDDSRNTLYLQMDSLTTEDTAVYFCTTGPPYSYFDSTGYSIVDYWGQGTLVTVSS VL: SYELTQPPAASGTPGQRVTISCSGSSSNIGSEYVLWYQQVPGTAPKLLIYNSHQRPSGVPDRISGSRSGTSASLAISGLRSEDEAHYYCASWDDSLSGPVFGGGTQLTVL			0.161 µg/mL	0.104 µg/mL	126 pM	196 pM
ADI-14533 (antibody, V domains shown) VH: QVQLVQSGAEVKKPGSSVIISCKASGGTFRNYGFTWVRQAPGQGLEWLGGIIPMFETVRYAQKFQGRVTITADENTNTAFLAVSSLRSEDTGVYFCARDLQTGIMSSVRSEYRGFMDPWGQGTLVTVSS VL: QSVLTQPPSVSGAPRQRVTISCSGSSSNIGTNAVNWYQQLPGKSPKVLIYYDELVPSGVSDRFSGSRSGTSASLAISGLRSEDEAYYYCAAWDDSLNGWVFGGGTQLTVL	0.442 µg/mL	> 10 µg/mL				
ADI-14440 (antibody, V domains shown, full-length IgG (yeast-expressed); also called Antibody Number 3; Ab# 3) VH: QVQLVQSGAEVKKPGSSVKVSCKASGGTINNVAISWLRQAPGQGLEWLGGNIPGFGKVRYSQQFETRLTLTADVSSDTAYMVLTSLRSEDTAVYYCAIIDPQLCTRASCFWVNWLDPWGQGTTVTVSS VL: DIVMTQSPGTLSVSPGESAALSCGASESILSDSLAWYQHKPGQAPRLLIYGASSRAAGIPDRFSGSGSGTDFTLTISRLEPEDFAVYFCQQFGALPITFGQGTRLEIK			> 10 µg/mL	4.18 µg/mL	2390 pM	1450 pM
ADI-14541 (antibody, V domains shown) VH: EVQLVESGGGLVRPGGSLRLSCAASGFAFSSYSLHWVRQAPGRGLEWVASISAGSSFTDYAASVRGRFTISRNIANSLYLQMNRLRAEDTAVYYCARVIGDGTILGVVF VL: QSVLTQPPSVSGAPGQRVTISCTGGRSNIGAGYDVHWYQQLPGTAPKLLIYGNINRPSGVPDRFSGSKSGTSASLAITGLLAEDEADYYCQSYDSSLSVIFGGGTKLTVL	0.106 µg/mL	0.023 µg/mL				
ADI-14460 (antibody, V domains shown, full-length IgG (yeast-expressed); also called Antibody Number 23; Ab# 23) VH: QVQLQQWGAGLLKPSETLSLSCTVSGGVFGNYFWSWVRQAPGKGLEWIGEINQIGTTNYSPSASLKSRVTISVDPSRNQFSLSLRSVTAADTARYYCTRSETSDYFDSSGYAFHIWGEGTMVTVSS VL: LPVLTQPASVSGSPGQSITISCSGISSDGGRYNYVSWYQQHPGKAPKLLIYDDSNWPLGVSHRFSGSKSGNTASLTISGLRAEDEADYYCGSYTDTNRLFGGGTQLTVL			0.102 µg/mL	0.239 µg/mL	2560 pM	2860 pM
ADI-14476 (antibody, V domains shown, full-length IgG (yeast-expressed); also called Antibody Number 38; Ab# 38) VH: QVQLVESGPTLVKPTQTLSLTCTFSGFSLTTRGVGVGWIRQPPGKALEWLGFTYWDGDDRYSPSLRNRVSIAKDTSKNQVVLTLTNMDPVDTATYFCVHSDRYDRGGYYLYFFDYWGPGTLVTVSS VL: DIRVTQSPSSLSASVGDRVSISCRASQTIASYVNWYQQRPGKAPQLLIFAASHLQTGVPSRFSGRGSGTDFTLTITSLQPEDFATYYCQQSYTSPYTFGQGTKVEIK			0.929 µg/mL	2.19 µg/mL	9120 pM	827 pM
ADI-14477 (antibody, V domains shown, full-length IgG (yeast-expressed); also called Antibody Number 39; Ab# 39) VH: EVQLVESGPTLVKPTQTLTLTCSLSGFSLTTRGVGVGWIRQPPGKAPECLGFVYWDDDNRYSPSLRGRLTISKDTSKNQVVLTLTNMDPLDTATYYCVHSDLYDRGGYYLFYFDDWGQGTLVTVSS VL: DIQVTQSPSSLSASVGDRVTITCRASQPIASYLNWYQQKPGQAPKLLIYAASMLQSGAPSKFSGRGSGTDFTLTITTLQPEDFATYYCQQSYTFPYTFGQGTKVEIK			> 10 µg/mL	> 10 µg/mL	1220 pM	361 pM
ADI-14466 (antibody, V domains shown, full-length IgG (yeast-expressed); also called Antibody Number 29; Ab# 29) VH: QVQLVQSGAEAKKPGEPLRISCKGSGYTFSSYWISWVRQRPGERLEWMGRIDPSDSYAYSSPSFQGHVTFSADKSSNTAFLQWSSLQASDTAIYYCARHKENYDFWDFWGQGTMVTVSS VL: ETTLTQSPDSLAVSLGERATINCRSSQPILFNPINKLSLAWYQLKPGQPPKLLISWASTREPGVPDRFNGSGSGTVFTLTISSLQPEDVAVYVCQQYFTSTFFGPGTKVEIK			0.144 µg/mL	0.263 µg/mL	169 pM	247 pM
ADI-14485 (antibody, V domains shown, full-length IgG (yeast-expressed); also called Antibody Number 46; Ab# 46) VH: EVQLVESGAEVKRPGSSVKVSCKVVGGSFSNYAISWVRQAPGQGPEYLGGIIPAFRTAKYAKKFQDRLTITADESTSTAYMEMRGLTSDDTGLYYCARPEGDFGDLKWLRSPFDYWGQGTLVTVSS VL: EIVLTQSPATLSVSPGQRVTLSCRASQGVSINLAWYQQKPGQPPRLLIYGASTRATDIPARFSGSGSGTDFTLTISSLQSEDFAVYYCQQYDDWPPQLTFGPGTKLEIK			> 10 µg/mL	2.81 µg/mL	642 pM	1520 pM
ADI-14468 (antibody, V domains shown, full-length IgG (yeast-expressed); also called Antibody Number 31; Ab# 31) VH: QVQLVQSGPTLVRPTQTLTLTCTFSGFSLSTRGVGVGWVRQSPGKAPEFLVLAHWDDDKIYSPSLRRRLSVTKDVSKNQVVLALTNVDPVDTGTYFCVKSDLYDRGGYYLYYFDHWGQGTLVTVSS VL: DIRMTQSPSSLSASVGDRVTITCRASQTIASYVNWYLQRPGEAPKLLIYAASNLHSGAPPSLIGRGSGTDFTLTINTLQPEHFGTYFCQQTFSSPYTFGQGTKVEIK			0.241 µg/mL	2.41 µg/mL	241 pM	297 pM
ADI-14469 (antibody, V domains shown, full-length IgG (yeast-expressed); also called Antibody Number 32; Ab# 32) VH: QVQLVESGPTLVKPTQTLTLTCTFSGFSLTTRGVGVGWVRQPPGKALEFLGLTHWDDDKIYSPSLRRRLTITKDTSKNQVVLALANVDPVDTATYFCVKSDLYDRGGYYLYYFDYWGQGTLVTVSS VL: EIVLTQSPSSLSASVGDRVTITCRASQTIPSYVNWYLQRPGEAPKLLIYGASNLHTGAPPTFIGRGSGADFTLTINTLQPEHFGTYYCQQTFSSPYTFGQGTKVEIK			0.05 µg/mL	0.013 µg/mL	2900 pM	301 pM
ADI-14475 (antibody, V domains shown, full-length IgG (yeast-expressed); also called Antibody Number 37; Ab# 37) VH: QVQLVQSGPALVKPTQTLTLTCTFSGFSLTTARMCVSWIRQPPGKALEWLARIDWDDDKSYSTSLKTRLTIAKDTSKNQVVLTMTNMGPADTATYYCVRTPIYASGGYYLSYFDSWGQGTLVTVSS VL: DIVMTQSPSSLSASVGDSVTITCRASQTIASYVNWYQHKPGQAPNLLIYAASILHSGVPSRFRGGGSGTDFTLTINSLQPEDFATYYCQQSYSTPYTFGQGTKVDIK			0.391 µg/mL	0.522 µg/mL	242 pM	299 pM
ADI-14470 (antibody, V domains shown, full-length IgG (yeast-expressed); also called Antibody Number 33; Ab# 33) VH: QVTLKESGPALVKPTETLTLTCTFSGFSLSTKRLSVSWIRQPPGKALEWLARIDWDDDKSYSTSLRTRLTIAKDTSKNQVVLTMTNMGPADTATYFCVRSSVYASNAYYLYYFDSWGQGTLVTVSS VL: DIRMTQSPSSLSASVGDRVTITCRASQSIATYLNWYQHKPGKAPTLLIYAASILHSGVPPRFSGRASGTDFTLTISSLQPEDFATYYCQQAYSSPYTFGQGTKVDIK			0.226 µg/mL	0.473 µg/mL	314 pM	358 pM
ADI-14459 (antibody, V domains shown, full-length IgG (yeast-expressed); also called Antibody Number 22; Ab# 22) VH: QVQLVQSGGGLVKPGGSLRLSCAASGFTFSNAWMSWVRQAPGKGLDWVGRIKTKADGGTRDYAAPVKGRFTISRDDSENTLYLQMTSLKTEDTGVYYCSTGPPYKYHDSTGYSVVDYWGQGTLVTVSS VL: SYELTQPPSASGTPGQRVTISCSGGSSNIGSDYVYWYQQLPGTAPKLLIYGSSQRPSGVPDRFSGSQSGTSASLAISGLRSEDEADYYCAMWDDSLNGPVFGGGTKLTVL			0.396 µg/mL	0.753 µg/mL	183 pM	264 pM
